Measurements: the supplement of paper PMC9170038

The sequences below were run on MS2 coat protein (assay: apparent KD of MS2 coat protein; higher = weaker reporter binding). Details: Eterna round: R107; input ligand: none.
Method in brief: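 The buffer was 100 mM Tris-HCl pH 7.5 with 80 mM KCl and 4 mM MgCl2, used without or with constant ligand. In it, RNA switches transcribed on-chip from Illumina sequencing clusters were titrated with SNAP-549-labelled MS2 coat protein in twofold steps from 0.7 or 1.5 nM to 3 µM. Apparent KD for each design is the median of its normalised cluster binding-curve fits.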

**Q.** How did the “apparent KD of MS2 coat protein” value turn out when “CUCAUCCACGCGGCCGCCACUAUAUUGUGGUGUGGGUGUGACGUAUUACAUGAGGAUCACCCAUGUAGGACCGGGCGUGGAUGAG [Stork]” was run?
**A.** Its value is 408 nM.

**Q.** Which “apparent KD of MS2 coat protein” value does the source give for “GCUGUACCAUGAAGGAGCGCUCACGCAGUUGCGGGUACAUGAGGAUCACCCAUGUUGGGUGAGCAGGUAGGUCGCAUGGUACAGC [SSAB #17]” here?
**A.** Its value is 237 nM.

**Q.** Which “apparent KD of MS2 coat protein” value does the source give for “GCCUCCAGCCGAAGGAGCGCUAGAAGGUGACAUGAGGAUCACCCAUGUGUGUGAUGUGGCUAGCAGGUAGGUCGCGGAGGAGGCA [Exclusion - Arginine B (Freestyle 22)]” here?
**A.** Its value is 109 nM.

**Q.** How did the “apparent KD of MS2 coat protein” value turn out when “UGGUACAUGGCGGCCGCCACUUCACGUAAAAUAAAAGCGUGAGGAUCACCCAUGCAAUAAGUUGGGAGGACCGGGUCAUGUACCU” was run?
**A.** Its value is 287 nM.

**Q.** With “AAACGCCACGGAAGGAGCGACAUGAGGAUCACCCAUGUAGUUUUGGCGGAUGCACCCUCCUGUCAGGUAGGUCGCCGUGCGAUAA [XArg-B26]” as the sequence, how does the “apparent KD of MS2 coat protein” value read?
**A.** Its value is 35.8 nM.

**Q.** With “AAAAUCCUACCUGAGGAUCACCCUGGUGAAGGAGCGCCCGAAAGGGCAGGUAGGUCGCACCUGAGGAUCACCCUGGUACCUAAAA [ArgAX 29 #DoubleMs2 #OpenEnded #AlternativeMS2]” as the sequence, how does the “apparent KD of MS2 coat protein” value read?
**A.** The value was 70.6 nM.

**Q.** “UGGCAAGAGGGAAGGAGCGUCAGCUGAGUCACAUGAGGAUCACCCAUGUCGCACAUAGUGUGACAGGUAGGUCGCCCUCUACCCU [Rearian]” was tested. Which “apparent KD of MS2 coat protein” value did it give?
**A.** The value was 222 nM.

**Q.** For “UGGUGUAGGGUAAAUAGGAUUAGUACAGAAGGAGCGCGAAUAAACGCAGGUAGGUCGCUGGAAUACAUGAGGAUCACCCAUGUUC [Same State Arginine A GF 25]”, which “apparent KD of MS2 coat protein” value is on record?
**A.** Its value is 22 nM.

**Q.** How did the “apparent KD of MS2 coat protein” value turn out when “GACAUGAGGAUCACCCAUGUACCGCGAGAAGGAGCGCGGAUAAACGCAGGUAGGUCGCUCGUGGGCUUUUAUUCAAUCGAAAGCU [Zaesar]” was run?
**A.** Its value is 50.5 nM.

**Q.** For “AAUUCCUCACAUGAGGAUCACCCAUGUGAAGGAGCGCCGAAUAAGGCAGGUAGGUCGCACAUGGAAACCGCUGCGAAAGCAGCAA [MAT - Exclusion Arginine A - Mod of Eli - D25]”, which “apparent KD of MS2 coat protein” value is on record?
**A.** Its value is 21.7 nM.

**Q.** With “GUCCUCAGCCGAAGGAGCGCUAGAAGGUGACAUGAGGAUCACCCAUGUGUGUGAUGUGGCUAGCAGGUAGGUCGCGGAGAGGAUU [Exclusion - Arginine B (Freestyle 17)]” as the sequence, how does the “apparent KD of MS2 coat protein” value read?
**A.** Its value is 98.6 nM.

**Q.** For “AGUCUUGAACGAAGGAGCGACGUACAUGAGGAUCACCCAUGUGGGAGCGAAAGCUCCUAACGUCAGGUAGGUCGCGUUCGAGACA [Omei Arginine B SS A v1]”, which “apparent KD of MS2 coat protein” value is on record?
**A.** The value was 16.7 nM.

**Q.** “GUAAUUAUAAGAAGGAGCGUCGAAAAUGGGUAAACAUGAGGAUCACCCAUGUAAAGGGAACGACAGGUAGGUCGCUUAUGAUUAC [AstromonsSSArgB#22]” was tested. Which “apparent KD of MS2 coat protein” value did it give?
**A.** Its value is 185 nM.

**Q.** “UGACAUUGCUCAGAUACCAGACAGGAGGAUCACUCCUGUGCCAACAAGUACAAAAUAAAUGUCCCUUGGCAGCUGAGCAAUGUCU [TheoBX 25 #MS2Left #AlternativeMS2 #Theo22]” was tested. Which “apparent KD of MS2 coat protein” value did it give?
**A.** Its value is 71.1 nM.

**Q.** Which “apparent KD of MS2 coat protein” value does the source give for “UUGUUGUUUGGAAGGAGCGUGUAUGAUUUAGAACAUGAGGAUCACCCAUGUUGGAGGAUAGCACAGGUAGGUCGCCGGGUGGUGG [11.X]” here?
**A.** Its value is 13.4 nM.

**Q.** With “UGUAUGUGAUUUGAUACCAGACCAGCGGGUGUUGCAUGAGGAUCACCCAUGUAGGUUUGGGUCCCUUGGCAGCAAAUCGCAUACU [SS Theo B #24 Ms18]” as the sequence, how does the “apparent KD of MS2 coat protein” value read?
**A.** The value was 482 nM.

**Q.** Which “apparent KD of MS2 coat protein” value does the source give for “GUACAUGAGGAUCACCCAUGUAUAGUUGAAGGAGCGACCGGUGGGUCAGGUAGGUCGCAGCACAUGGCGUCAACCCGUGUAUGCC [#1 Exclusion - Arginine A Attempt #26 (Inspired by Pi)]” here?
**A.** Its value is 17.6 nM.

**Q.** With “CGCAACCCACAUGAGGAUCACCCAUGUGAAGGAGCGGCGAAUAAGCCAGGUAGGUCGCGCAUGAAUAAAUCAUGUAGGAAGCUAA [XArg-A 8 V1]” as the sequence, how does the “apparent KD of MS2 coat protein” value read?
**A.** The value was 10.8 nM.

**Q.** For “GAAGGAACCGGAAGGAGCGGGUCCUUAGCCACUACAUGAGGAUCACCCAUGUCCGGGAGGUCCCAGGUAGGUCGCCGGUCUUAAA [Gelece]”, which “apparent KD of MS2 coat protein” value is on record?
**A.** Its value is 277 nM.

**Q.** For “ACCUGUACGAAAAGUGCAGGACAUGAAUAACGAGGACCGGUACGGCCGCCACUCGGGUAAUAACCUGAGGAUCACCCGGGUCAUG [TrypAS 6 #AlternativeMS2 #Zipper #StaticStem]”, which “apparent KD of MS2 coat protein” value is on record?
**A.** Its value is 218 nM.

**Q.** With “CGGUACAUGAGGAUCACCCAUGUGUCGGAUACCAGAGAGCCGGCUCUCCCUUGGCAGCUGGUGCGACAUGAGGAUCACCCAUGUG [Exclusion Theophylline A GF19]” as the sequence, how does the “apparent KD of MS2 coat protein” value read?
**A.** Its value is 61.6 nM.

Same assay, conditions: Eterna round: R107; input ligand: theophylline 20 uM

**Q.** Which “apparent KD of MS2 coat protein” value does the source give for “GGCACAUAGUCGGCCGCCACUACUAACACCUCAGACAACAUGAGGAUCACCCAUGUUCCAGAGUGUAGGACCGGGACUAUGUGCC [Minonka]” here?
**A.** Its value is 13.7 nM.

**Q.** For “GGAUAGGACACGGCCGCCACUAGCUAGGAUACUAGCAACAUUUCCUCACCUGAGGAUCACCCUGGUAGGACCGGGUGUCCUAUCG”, which “apparent KD of MS2 coat protein” value is on record?
**A.** Its value is 569 nM.

**Q.** Which “apparent KD of MS2 coat protein” value does the source give for “CAGGCUAGGACGGCCGCCACUGUGGCUACGGUACAUGAGGAUCACCCAUGUUUGUGGUUGAUCUACAGGACCGGGUCCUGACACG [Letisoonri]” here?
**A.** The value was 134 nM.

**Q.** With “CUCAUCCACGCGGCCGCCACUAUAUUGUGGUGUGGGUGUGACGUAUUACAUGAGGAUCACCCAUGUAGGACCGGGCGUGGAUGAG [Stork]” as the sequence, how does the “apparent KD of MS2 coat protein” value read?
**A.** The value was 525 nM.

**Q.** With “GGAUAGGACACGGCCGCCACUGCCUAGGAUACUAGCAACAUUUGGGUACAUGAGGAUCACCCAUGUAGGACCGGGUGUCCUAUCG” as the sequence, how does the “apparent KD of MS2 coat protein” value read?
**A.** The value was 70.9 nM.

**Q.** With “GCUGUACCAUGAAGGAGCGCUCACGCAGUUGCGGGUACAUGAGGAUCACCCAUGUUGGGUGAGCAGGUAGGUCGCAUGGUACAGC [SSAB #17]” as the sequence, how does the “apparent KD of MS2 coat protein” value read?
**A.** Its value is 193 nM.

**Q.** “GCCUCCAGCCGAAGGAGCGCUAGAAGGUGACAUGAGGAUCACCCAUGUGUGUGAUGUGGCUAGCAGGUAGGUCGCGGAGGAGGCA [Exclusion - Arginine B (Freestyle 22)]” was tested. Which “apparent KD of MS2 coat protein” value did it give?
**A.** The value was 105 nM.

**Q.** “UGGUACAUGGCGGCCGCCACUUCACGUAAAAUAAAAGCGUGAGGAUCACCCAUGCAAUAAGUUGGGAGGACCGGGUCAUGUACCU” was tested. Which “apparent KD of MS2 coat protein” value did it give?
**A.** The value was 633 nM.

**Q.** Which “apparent KD of MS2 coat protein” value does the source give for “AUAACAUGAGGAUCACCCAUGUAAGCAGAUACCAGCUAGGAAACUAGCCCUUGGCAGCUGCAAGGUGAUCCUAAUGCAGCUGCAA [(M1)-(M2)-(T1)-(T2)-(M)'-(T)'_Design3]” here?
**A.** The value was 241 nM.

**Q.** With “AAACGCCACGGAAGGAGCGACAUGAGGAUCACCCAUGUAGUUUUGGCGGAUGCACCCUCCUGUCAGGUAGGUCGCCGUGCGAUAA [XArg-B26]” as the sequence, how does the “apparent KD of MS2 coat protein” value read?
**A.** The value was 71.8 nM.

**Q.** Which “apparent KD of MS2 coat protein” value does the source give for “AAAAUCCUACCUGAGGAUCACCCUGGUGAAGGAGCGCCCGAAAGGGCAGGUAGGUCGCACCUGAGGAUCACCCUGGUACCUAAAA [ArgAX 29 #DoubleMs2 #OpenEnded #AlternativeMS2]” here?
**A.** Its value is 57.4 nM.

**Q.** With “CUUGGCUGUGCGGCCGCCACUGACUCAUCCUGCAUUACAUGAGGAUCACCCAUGUUGCGGCCUCCCAGGACCGGGCAUAGCCUGC [Veered]” as the sequence, how does the “apparent KD of MS2 coat protein” value read?
**A.** The value was 397 nM.

**Q.** With “UGGCAAGAGGGAAGGAGCGUCAGCUGAGUCACAUGAGGAUCACCCAUGUCGCACAUAGUGUGACAGGUAGGUCGCCCUCUACCCU [Rearian]” as the sequence, how does the “apparent KD of MS2 coat protein” value read?
**A.** Its value is 209 nM.

**Q.** “AUAACAUGAGGAUCACCCAUGUAAGCAGAUACCAGCUAGGAAACUAGCCCUUGGCAGCUGCAUUCCUCAUGUAGGUAUCUGCUAA [(M1)-(M2)-(T1)-(T2)-(M)'-(T)'_Design4]” was tested. Which “apparent KD of MS2 coat protein” value did it give?
**A.** The value was 22.1 nM.

**Q.** Which “apparent KD of MS2 coat protein” value does the source give for “UGGUGUAGGGUAAAUAGGAUUAGUACAGAAGGAGCGCGAAUAAACGCAGGUAGGUCGCUGGAAUACAUGAGGAUCACCCAUGUUC [Same State Arginine A GF 25]” here?
**A.** Its value is 24.7 nM.

**Q.** “GACAUGAGGAUCACCCAUGUACCGCGAGAAGGAGCGCGGAUAAACGCAGGUAGGUCGCUCGUGGGCUUUUAUUCAAUCGAAAGCU [Zaesar]” was tested. Which “apparent KD of MS2 coat protein” value did it give?
**A.** The value was 106 nM.

**Q.** With “AAUUCCUCACAUGAGGAUCACCCAUGUGAAGGAGCGCCGAAUAAGGCAGGUAGGUCGCACAUGGAAACCGCUGCGAAAGCAGCAA [MAT - Exclusion Arginine A - Mod of Eli - D25]” as the sequence, how does the “apparent KD of MS2 coat protein” value read?
**A.** Its value is 33.2 nM.

**Q.** How did the “apparent KD of MS2 coat protein” value turn out when “GGGUAUGAUCCGGAUACCAGCGAACAUGAGGAUCACCCAUGUGACCUAAGAUAGGCUCUACGCCCUUGGCAGCCGCGAUCGCGUU [Same State Theophylline B GF8]” was run?
**A.** The value was 32 nM.

**Q.** How did the “apparent KD of MS2 coat protein” value turn out when “GUCCUCAGCCGAAGGAGCGCUAGAAGGUGACAUGAGGAUCACCCAUGUGUGUGAUGUGGCUAGCAGGUAGGUCGCGGAGAGGAUU [Exclusion - Arginine B (Freestyle 17)]” was run?
**A.** The value was 157 nM.
